Measured values reported in publication PMC10624691, “HSPA8 acts as an amyloidase to suppress necroptosis by inhibiting and reversing functional amyloid formation” (Cell Research, 2023).

Experiments:
[1] = target: T1, recombinant hHSPA8-CT (C-terminal fragment 385-647, SBD; 6xHis-Sumo) (human, UniProt P11142 385-646); assay: negative staining immunogold EM; RIP3 fibrils with HSPA8-SBD on grids; anti-HSPA8 antibody 1:100, anti-rabbit gold-conjugated antibody; conditions: both partners purified
T1 construct: human HSPA8 C-terminal fragment, residues 385-647 as printed; also called HSPA8-SBD; HSPA8 SBD domain; source: E. coli BL21 (DE3), purified (Ni-NTA, Superdex 200)
T1 sequence (P11142 385-646): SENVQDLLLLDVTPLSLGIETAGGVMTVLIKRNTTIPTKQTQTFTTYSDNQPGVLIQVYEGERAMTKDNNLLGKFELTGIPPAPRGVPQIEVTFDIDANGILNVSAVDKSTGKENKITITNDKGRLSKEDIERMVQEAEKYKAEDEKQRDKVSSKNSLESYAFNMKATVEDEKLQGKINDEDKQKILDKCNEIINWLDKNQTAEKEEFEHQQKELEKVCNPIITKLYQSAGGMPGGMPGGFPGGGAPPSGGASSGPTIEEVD

[2] = target: T2, GST-tagged HSPA8-SBD domain (GST-HSPA8-SBD 385-647) ( (human or mouse cDNA cloned), UniProt P11142 385-646); assay: pull-down; His pull-down on Ni-NTA; His-Sumo-RIP3(388-518)-4A as bait, GST-HSPA8-SBD as prey; mixed 1:1 (50 uM each) for 6 h at 4 C; conditions: both partners purified
T2 construct: The plasmid methods name only 6xHis-Sumo constructs for E. coli; the GST construct is not described there; source: E. coli, purified
T2 sequence (P11142 385-646): as above

[3] = target: the molecule itself; assay: seeded fibril growth assay (ThT fluorescence, negative-stain EM, pelleting); sonicated fibril seeds (0.5 uM) with monomers (5 uM), with or without HSPA8 (5 uM); 30 C by the methods, 37 C for 2 h by the legend of Fig. 3c; fibrils pelleted at 12,000 g

Binder	binding result [3]	also measured
hRIP3(388-518) tagged with 6xHis-Sumo (RIP3 fibrils of Fig. 4) (domain or fragment, human, UniProt Q9Y572 388-518, looked up, human RIP3 residues 388-518; also called RIP3 amyloids; source: E. coli BL21 (DE3), purified (Ni-NTA, Superdex 200)) SSDSMAQPPQTPETSTFRNQMPSPTSTGTPSPGPRGNQGAERQGMNWSCRTPEPNPVTGRPLVNIYNCSGVQVGDNNYLTMQQTTALPTWGLAPSGKGRGLQHPPPVGSQEGPKDPEAWSRPQGWYNHSGK	–	binding result [1]: binds
His-Sumo-RIP3(388-518)-4A (domain or fragment, human, UniProt Q9Y572 388-518, looked up, human RIP3 residues 388-518 with the RHIM core VQVG replaced by AAAA; also called His-tagged RIP3-RHIM-4A; His-tagged RHIM-4A-containing RIP3 (388-518 aa); source: E. coli, purified) SSDSMAQPPQTPETSTFRNQMPSPTSTGTPSPGPRGNQGAERQGMNWSCRTPEPNPVTGRPLVNIYNCSGAAAADNNYLTMQQTTALPTWGLAPSGKGRGLQHPPPVGSQEGPKDPEAWSRPQGWYNHSGK	–	binding result [2]: binds
QPLIIHHAQMVQLGLNNHMWNQ (peptide, UniProt Q8IUC6 677-698, looked up, TRIF residues 677-698; source: custom-made by WuXi AppTec) [TRIF(677-698)]	binds	–
RIP1(497-582) (domain or fragment, human, UniProt Q13546 497-582, looked up, the reagents paragraph prints 498-582; two first limits printed (497 and 498); also called RIP1_((498-582)); source: recombinant, generated previously) MPSLHNIPVPETNYLGNTPTMPFSSLPPTDESIKYTIYNSTGIQIGAYNYMEIGGTSSSLLDSTNTNFKEEPAAKYQAIFDNTTSL	binds	–
